According to patent publication US20240067751A1 (KEYMED BIOSCIENCES, published 2024):

How the values were obtained:
MASP-2 in human serum [1] = molecular target: T1, MASP-2 in human serum (human, UniProt O00187 16-686); experiment: cell-based or functional assay
MASP-2 in human serum [2] = molecular target: T1, MASP-2 in human serum; experiment: cell-based or functional assay; remark: listed apart in the source

T1 sequence (O00187 16-686 limits assumed): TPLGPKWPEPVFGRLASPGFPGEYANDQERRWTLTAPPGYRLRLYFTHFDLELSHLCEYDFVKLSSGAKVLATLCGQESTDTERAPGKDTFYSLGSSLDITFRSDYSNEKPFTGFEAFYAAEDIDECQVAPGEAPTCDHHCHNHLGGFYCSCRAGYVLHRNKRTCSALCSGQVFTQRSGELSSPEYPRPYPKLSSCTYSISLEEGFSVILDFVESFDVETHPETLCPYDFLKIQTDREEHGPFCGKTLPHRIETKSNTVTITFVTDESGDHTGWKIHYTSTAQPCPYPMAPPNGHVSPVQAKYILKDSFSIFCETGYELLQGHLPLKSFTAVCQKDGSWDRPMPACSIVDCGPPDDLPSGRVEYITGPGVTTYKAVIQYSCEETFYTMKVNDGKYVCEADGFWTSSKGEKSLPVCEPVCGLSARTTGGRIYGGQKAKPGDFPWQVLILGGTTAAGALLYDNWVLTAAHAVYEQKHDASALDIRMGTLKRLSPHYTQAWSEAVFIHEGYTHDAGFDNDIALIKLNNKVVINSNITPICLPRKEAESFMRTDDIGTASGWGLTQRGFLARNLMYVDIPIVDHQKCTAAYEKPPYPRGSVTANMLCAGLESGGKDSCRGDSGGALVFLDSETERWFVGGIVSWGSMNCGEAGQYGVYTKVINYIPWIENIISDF

Binder | IC50, inhibition of C4b deposition (MASP-2 in human serum [1]) [nM] | IC50, inhibition of C3b deposition (MASP-2 in human serum [2]) [nM]
h16B11 H1K1 (antibody, V domains shown) VH: QMQLQESGPGLVKPSETLSLTCTVSGYSITSDYAWNWIRQPPGKGLEWIGYISYSGRTSYNPSLKSRVTISRDTSKNQFSLKLSSVTAADTAVYYCARHYGDYWGQGTLVTVSS VL: DIQMTQSPSSLSASVGDRVTITCRASQNVGTNVAWYQQKPGKAPKALIYSASYRESGVPSRFSGSGSGTDFTLTISSLQPEDFATYFCQQFNTNPLTFGGGTKVEIK | 0.02 | 0.014
h16B11 H1K5 (antibody, V domains shown) VH: QMQLQESGPGLVKPSETLSLTCTVSGYSITSDYAWNWIRQPPGKGLEWIGYISYSGRTSYNPSLKSRVTISRDTSKNQFSLKLSSVTAADTAVYYCARHYGDYWGQGTLVTVSS VL: EIVMTQSPATLSVSPGERATLSCRASQNVGTNVAWYQQKPGQAPRLLIYSASYRESGIPARFSGSGSGTEFTLTISSLQSEDFAVYFCQQFNTNPLTFGGGTKVEIK | – | 0.024
h16B11 H1K4 (antibody, V domains shown) VH: QMQLQESGPGLVKPSETLSLTCTVSGYSITSDYAWNWIRQPPGKGLEWIGYISYSGRTSYNPSLKSRVTISRDTSKNQFSLKLSSVTAADTAVYYCARHYGDYWGQGTLVTVSS VL: EIVMTQSPATLSVSPGERATLSCRASQNVGTNVAWYQQKPGQAPRALIYSASYRESGIPARFSGSGSGTEFTLTISSLQSEDFAVYFCQQFNTNPLTFGGGTKVEIK | – | 0.015
h16B11 H2K1 (antibody, V domains shown) VH: QLQLQESGPGLVKPSETLSLTCTVSGYSITSDYAWNWIRQPPGKGLEWIGYISYSGRTSYNPSLKSRVTISRDTSKNQFSLKLSSVTAADTAVYYCARHYGDYWGQGTLVTVSS VL: DIQMTQSPSSLSASVGDRVTITCRASQNVGTNVAWYQQKPGKAPKALIYSASYRESGVPSRFSGSGSGTDFTLTISSLQPEDFATYFCQQFNTNPLTFGGGTKVEIK | 0.02 | 0.017
h16B11 H2K4 (antibody, V domains shown) VH: QLQLQESGPGLVKPSETLSLTCTVSGYSITSDYAWNWIRQPPGKGLEWIGYISYSGRTSYNPSLKSRVTISRDTSKNQFSLKLSSVTAADTAVYYCARHYGDYWGQGTLVTVSS VL: EIVMTQSPATLSVSPGERATLSCRASQNVGTNVAWYQQKPGQAPRALIYSASYRESGIPARFSGSGSGTEFTLTISSLQSEDFAVYFCQQFNTNPLTFGGGTKVEIK | – | 0.015
h16B11 H1K3 (antibody, V domains shown) VH: QMQLQESGPGLVKPSETLSLTCTVSGYSITSDYAWNWIRQPPGKGLEWIGYISYSGRTSYNPSLKSRVTISRDTSKNQFSLKLSSVTAADTAVYYCARHYGDYWGQGTLVTVSS VL: DIQMTQSPSSLSASVGDRVTITCRASQNVGTNVAWYQQKPGKAPKALIYSASYRQSGVPSRFSGSGSGTDFTLTISSLQPEDFATYFCQQFNTNPLTFGGGTKVEIK | 0.021 | 0.023
h16B11 H2K5 (antibody, V domains shown) VH: QLQLQESGPGLVKPSETLSLTCTVSGYSITSDYAWNWIRQPPGKGLEWIGYISYSGRTSYNPSLKSRVTISRDTSKNQFSLKLSSVTAADTAVYYCARHYGDYWGQGTLVTVSS VL: EIVMTQSPATLSVSPGERATLSCRASQNVGTNVAWYQQKPGQAPRLLIYSASYRESGIPARFSGSGSGTEFTLTISSLQSEDFAVYFCQQFNTNPLTFGGGTKVEIK | – | 0.032
h16B11 H3K6 (antibody, V domains shown) VH: QLQLQESGPGLVKPSETLSLTCTVSGYSITSDYAWNWIRQPPGKGLEWIGYISYSGRTSYNPSLKSRVTISVDTSKNQFSLKLSSVTAADTAVYYCARHYGDYWGQGTLVTVSS VL: EIVMTQSPATLSVSPGERATLSCRASQNVGTNVAWYQQKPGQAPRALIYSASYRQSGIPARFSGSGSGTEFTLTISSLQSEDFAVYFCQQFNTNPLTFGGGTKVEIK | – | 0.071
h16B11 H2K6 (antibody, V domains shown) VH: QLQLQESGPGLVKPSETLSLTCTVSGYSITSDYAWNWIRQPPGKGLEWIGYISYSGRTSYNPSLKSRVTISRDTSKNQFSLKLSSVTAADTAVYYCARHYGDYWGQGTLVTVSS VL: EIVMTQSPATLSVSPGERATLSCRASQNVGTNVAWYQQKPGQAPRALIYSASYRQSGIPARFSGSGSGTEFTLTISSLQSEDFAVYFCQQFNTNPLTFGGGTKVEIK | – | 0.018
h16B11 H3K4 (antibody, V domains shown) VH: QLQLQESGPGLVKPSETLSLTCTVSGYSITSDYAWNWIRQPPGKGLEWIGYISYSGRTSYNPSLKSRVTISVDTSKNQFSLKLSSVTAADTAVYYCARHYGDYWGQGTLVTVSS VL: EIVMTQSPATLSVSPGERATLSCRASQNVGTNVAWYQQKPGQAPRALIYSASYRESGIPARFSGSGSGTEFTLTISSLQSEDFAVYFCQQFNTNPLTFGGGTKVEIK | – | 0.052
h16B11 H1K6 (antibody, V domains shown) VH: QMQLQESGPGLVKPSETLSLTCTVSGYSITSDYAWNWIRQPPGKGLEWIGYISYSGRTSYNPSLKSRVTISRDTSKNQFSLKLSSVTAADTAVYYCARHYGDYWGQGTLVTVSS VL: EIVMTQSPATLSVSPGERATLSCRASQNVGTNVAWYQQKPGQAPRALIYSASYRQSGIPARFSGSGSGTEFTLTISSLQSEDFAVYFCQQFNTNPLTFGGGTKVEIK | – | 0.018
h16B11 H3K5 (antibody, V domains shown) VH: QLQLQESGPGLVKPSETLSLTCTVSGYSITSDYAWNWIRQPPGKGLEWIGYISYSGRTSYNPSLKSRVTISVDTSKNQFSLKLSSVTAADTAVYYCARHYGDYWGQGTLVTVSS VL: EIVMTQSPATLSVSPGERATLSCRASQNVGTNVAWYQQKPGQAPRLLIYSASYRESGIPARFSGSGSGTEFTLTISSLQSEDFAVYFCQQFNTNPLTFGGGTKVEIK | – | 0.44
h3H6 H1K1 (antibody, V domains shown) VH: QVQLVQSGAEVKKPGSSVKVSCKASGYTFATYSIHWVRQAPGQGLEWMGYINPSSGYTNYNQKFQGRVTLTADKSTSTAYMELSSLRSEDTAVYYCARVYYTFYHAMDYWGQGTTVTVSS VL: DIQMTQSPSSLSASVGDRVTITCRASQDVNTAVAWYQQKPGKAPKLLIYSASYRYTGVPSRFSGSGSGTDFTLTISSLQPEDFATYYCQQHYNIPLTFGGGTKVEIK | 0.014 | 0.03
h28O14 H2K1 (antibody, V domains shown) VH: QVQLVQSGAEVKKPGSSVKVSCKASGYTFRSHTMHWVRQAPGQGLEWMGYINPSTGYINYNQKFQGRVTLTADESTSTAYMELSSLRSEDTAVYYCARSNYAYYYGMDYWGQGTTVTVSS VL: DIQMTQSPSSLSASVGDRVTITCRASQDVNTAVAWYQQKPGKAPKLLIYSASYRYTGVPSRFSGSGSGTDFTLTISSLQPEDFATYYCQQHYNIPLTFGGGTKVEIK | 0.324 | 0.483
h28O14 H3K1 (antibody, V domains shown) VH: QVQLVQSGAEVKKPGSSVKVSCKASGYTFRSHTMHWVRQAPGQGLEWMGYINPSTGYINYNQKFQGRVTITADKSTSTAYMELSSLRSEDTAVYYCARSNYAYYYGMDYWGQGTTVTVSS VL: DIQMTQSPSSLSASVGDRVTITCRASQDVNTAVAWYQQKPGKAPKLLIYSASYRYTGVPSRFSGSGSGTDFTLTISSLQPEDFATYYCQQHYNIPLTFGGGTKVEIK | 0.064 | 0.161
h3H6 H4K1 (antibody, V domains shown) VH: QVQLVQSGAEVKKPGSSVKVSCKASGYTFATYSIHWVRQAPGQGLEWMGYINPSSGYTNYNQKFQGRVTITADESTSTAYMELSSLRSEDTAVYYCARVYYTFYHAMDYWGQGTTVTVSS VL: DIQMTQSPSSLSASVGDRVTITCRASQDVNTAVAWYQQKPGKAPKLLIYSASYRYTGVPSRFSGSGSGTDFTLTISSLQPEDFATYYCQQHYNIPLTFGGGTKVEIK | 0.09 | 0.151
h16B11 H1K2 (antibody, V domains shown) VH: QMQLQESGPGLVKPSETLSLTCTVSGYSITSDYAWNWIRQPPGKGLEWIGYISYSGRTSYNPSLKSRVTISRDTSKNQFSLKLSSVTAADTAVYYCARHYGDYWGQGTLVTVSS VL: DIQMTQSPSSLSASVGDRVTITCRASQNVGTNVAWYQQKPGKAPKLLIYSASYRESGVPSRFSGSGSGTDFTLTISSLQPEDFATYFCQQFNTNPLTFGGGTKVEIK | 0.051 | 0.04
h28O14 H1K1 (antibody, V domains shown) VH: QVQLVQSGAEVKKPGSSVKVSCKASGYTFRSHTMHWVRQAPGQGLEWMGYINPSTGYINYNQKFQGRVTLTADKSTSTAYMELSSLRSEDTAVYYCARSNYAYYYGMDYWGQGTTVTVSS VL: DIQMTQSPSSLSASVGDRVTITCRASQDVNTAVAWYQQKPGKAPKLLIYSASYRYTGVPSRFSGSGSGTDFTLTISSLQPEDFATYYCQQHYNIPLTFGGGTKVEIK | 0.083 | 0.146
h3H6 H2K1 (antibody, V domains shown) VH: QVQLVQSGAEVKKPGSSVKVSCKASGYTFATYSIHWVRQAPGQGLEWMGYINPSSGYTNYNQKFQGRVTLTADESTSTAYMELSSLRSEDTAVYYCARVYYTFYHAMDYWGQGTTVTVSS VL: DIQMTQSPSSLSASVGDRVTITCRASQDVNTAVAWYQQKPGKAPKLLIYSASYRYTGVPSRFSGSGSGTDFTLTISSLQPEDFATYYCQQHYNIPLTFGGGTKVEIK | 0.086 | 0.151
h3H6 H3K1 (antibody, V domains shown) VH: QVQLVQSGAEVKKPGSSVKVSCKASGYTFATYSIHWVRQAPGQGLEWMGYINPSSGYTNYNQKFQGRVTITADKSTSTAYMELSSLRSEDTAVYYCARVYYTFYHAMDYWGQGTTVTVSS VL: DIQMTQSPSSLSASVGDRVTITCRASQDVNTAVAWYQQKPGKAPKLLIYSASYRYTGVPSRFSGSGSGTDFTLTISSLQPEDFATYYCQQHYNIPLTFGGGTKVEIK | 0.017 | 0.034
h28O14 H4K1 (antibody, V domains shown) VH: QVQLVQSGAEVKKPGSSVKVSCKASGYTFRSHTMHWVRQAPGQGLEWMGYINPSTGYINYNQKFQGRVTITADESTSTAYMELSSLRSEDTAVYYCARSNYAYYYGMDYWGQGTTVTVSS VL: DIQMTQSPSSLSASVGDRVTITCRASQDVNTAVAWYQQKPGKAPKLLIYSASYRYTGVPSRFSGSGSGTDFTLTISSLQPEDFATYYCQQHYNIPLTFGGGTKVEIK | 0.338 | 0.506
